Reference: IntAct's records for PubMed 29892012

B1: Protein VAC14 homolog (Homo sapiens), Q08AM6 (parent)
chain: MNPEKDFAPLTPNIVRALNDKLYEKRKVAALEIEKLVREFVAQNNTVQIKHVIQTLSQEFALSQHPHSRKGGLIGLAACSIALGKDSGLYLKELIEPVLTCFNDADSRLRYYACEALYNIVKVARGAVLPHFNVLFDGLSKLAADPDPNVKSGSELLDRLLKDIVTESNKFDLVSFIPLLRERIYSNNQYARQFIISWILVLESVPDINLLDYLPEILDGLFQILGDNGKEIRKMCEVVLGEFLKEIKKNPSSVKFAEMANILVIHCQTTDDLIQLTAMCWMREFIQLAGRVMLPYSSGILTAVLPCLAYDDRKKSIKEVANVCNQSLMKLVTPEDDELDELRPGQRQAEPTPDDALPKQEGTASGGPDGSCDSSFSSGISVFTAASTERAPVTLHLDGIVQVLNCHLSDTAIGMMTRIAVLKWLYHLYIKTPRKMFRHTDSLFPILLQTLSDESDEVILKDLEVLAEIASSPAGQTDDPGPLDGPDLQASHSELQVPTPGRAGLLNTSGTKGLECSPSTPTMNSYFYKFMINLLKRFSSERKLLEVRGPFIIRQLCLLLNAENIFHSMADILLREEDLKFASTMVHALNTILLTSTELFQLRNQLKDLKTLESQNLFCCLYRSWCHNPVTTVSLCFLTQNYRHAYDLIQKFGDLEVTVDFLAEVDKLVQLIECPIFTYLRLQLLDVKNNPYLIKALYGLLMLLPQSSAFQLLSHRLQCVPNPELLQTEDSLKAAPKSQKADSPSIDYAELLQHFEKVQNKHLEVRHQRSGRGDHLDRRVVL
B2: Ribosome assembly protein METTL17, mitochondrial (Homo sapiens), Q9H7H0 (parent)
chain: MAAALKCLLTLGRWCPGLGVAPQARALAALVPGVTQVDNKSGFLQKRPHRQHPGILKLPHVRLPQALANGAQLLLLGSAGPTMENQVQTLTSYLWSRHLPVEPEELQRRARHLEKKFLENPDLSQTEEKLRGAVLHALRKTTYHWQELSYTEGLSLVYMAARLDGGFAAVSRAFHEIRARNPAFQPQTLMDFGSGTGSVTWAAHSIWGQSLREYMCVDRSAAMLVLAEKLLKGGSESGEPYIPGVFFRQFLPVSPKVQFDVVVSAFSLSELPSKADRTEVVQTLWRKTGHFLVLVENGTKAGHSLLMDARDLVLKGKEKSPLDPRPGFVFAPCPHELPCPQLTNLACSFSQAYHPIPFSWNKKPKEEKFSMVILARGSPEEAHRWPRITQPVLKRPRHVHCHLCCPDGHMQHAVLTARRHGRDLYRCARVSSWGDLLPVLTPSAFPPSTAQDPSES
partner: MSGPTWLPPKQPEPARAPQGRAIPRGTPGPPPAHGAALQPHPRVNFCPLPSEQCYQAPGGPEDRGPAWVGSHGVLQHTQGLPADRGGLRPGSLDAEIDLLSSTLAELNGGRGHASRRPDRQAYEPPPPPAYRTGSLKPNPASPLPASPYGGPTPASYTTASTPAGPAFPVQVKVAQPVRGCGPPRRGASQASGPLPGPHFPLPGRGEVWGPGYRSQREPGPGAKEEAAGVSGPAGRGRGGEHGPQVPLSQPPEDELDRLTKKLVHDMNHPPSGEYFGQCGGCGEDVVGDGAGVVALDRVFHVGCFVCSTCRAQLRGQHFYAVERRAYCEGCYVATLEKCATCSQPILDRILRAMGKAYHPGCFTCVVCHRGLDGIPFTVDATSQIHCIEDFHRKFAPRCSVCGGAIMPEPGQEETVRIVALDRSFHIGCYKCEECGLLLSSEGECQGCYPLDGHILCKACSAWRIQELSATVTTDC
B3: Serine hydroxymethyltransferase, mitochondrial (Homo sapiens), P34897 (parent)
chain: MLYFSLFWAARPLQRCGQLVRMAIRAQHSNAAQTQTGEANRGWTGQESLSDSDPEMWELLQREKDRQCRGLELIASENFCSRAALEALGSCLNNKYSEGYPGKRYYGGAEVVDEIELLCQRRALEAFDLDPAQWGVNVQPYSGSPANLAVYTALLQPHDRIMGLDLPDGGHLTHGYMSDVKRISATSIFFESMPYKLNPKTGLIDYNQLALTARLFRPRLIIAGTSAYARLIDYARMREVCDEVKAHLLADMAHISGLVAAKVIPSPFKHADIVTTTTHKTLRGARSGLIFYRKGVKAVDPKTGREIPYTFEDRINFAVFPSLQGGPHNHAIAAVAVALKQACTPMFREYSLQVLKNARAMADALLERGYSLVSGGTDNHLVLVDLRPKGLDGARAERVLELVSITANKNTCPGDRSAITPGGLRLGAPALTSRQFREDDFRRVVDFIDEGVNIGLEVKSKTAKLQDFKSFLLKDSETSQRLANLRQRVEQFARAFPMPGFDEH
partner: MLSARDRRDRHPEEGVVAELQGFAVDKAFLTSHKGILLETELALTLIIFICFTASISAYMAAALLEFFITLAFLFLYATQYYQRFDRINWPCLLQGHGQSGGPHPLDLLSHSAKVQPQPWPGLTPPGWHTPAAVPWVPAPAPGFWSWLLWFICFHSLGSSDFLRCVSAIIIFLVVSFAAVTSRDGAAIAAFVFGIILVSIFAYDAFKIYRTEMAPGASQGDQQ
B4: Ribosome assembly protein METTL17, mitochondrial (Homo sapiens), Q9H7H0 (parent)
chain: B2 chain
partner: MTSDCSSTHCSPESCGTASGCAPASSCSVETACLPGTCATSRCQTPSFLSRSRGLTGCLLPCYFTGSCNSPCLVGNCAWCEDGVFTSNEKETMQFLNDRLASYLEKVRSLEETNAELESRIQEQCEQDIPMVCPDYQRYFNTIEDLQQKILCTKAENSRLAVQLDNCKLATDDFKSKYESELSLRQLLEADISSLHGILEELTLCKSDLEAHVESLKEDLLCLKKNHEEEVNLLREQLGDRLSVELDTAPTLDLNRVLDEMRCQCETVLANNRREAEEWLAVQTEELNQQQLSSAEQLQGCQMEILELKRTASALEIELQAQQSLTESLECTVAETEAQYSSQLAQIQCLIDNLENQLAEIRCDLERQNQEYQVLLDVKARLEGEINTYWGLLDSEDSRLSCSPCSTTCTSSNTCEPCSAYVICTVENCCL

Variants of: B1
Settings: with fnd3b_human FNDC3B

| Variant | effect of a mutation on the interaction |
| --- | --- |
| A127S | with no effect |

Variants of: B1
Settings: with at2l2_human PHYKPL

| Variant | effect of a mutation on the interaction |
| --- | --- |
| A127S | with no effect |

Variants of: B1
Settings: with cd209_human CD209, Q9NNX6
cd209_human CD209, Q9NNX6, sequence (Q9NNX6 whole entry): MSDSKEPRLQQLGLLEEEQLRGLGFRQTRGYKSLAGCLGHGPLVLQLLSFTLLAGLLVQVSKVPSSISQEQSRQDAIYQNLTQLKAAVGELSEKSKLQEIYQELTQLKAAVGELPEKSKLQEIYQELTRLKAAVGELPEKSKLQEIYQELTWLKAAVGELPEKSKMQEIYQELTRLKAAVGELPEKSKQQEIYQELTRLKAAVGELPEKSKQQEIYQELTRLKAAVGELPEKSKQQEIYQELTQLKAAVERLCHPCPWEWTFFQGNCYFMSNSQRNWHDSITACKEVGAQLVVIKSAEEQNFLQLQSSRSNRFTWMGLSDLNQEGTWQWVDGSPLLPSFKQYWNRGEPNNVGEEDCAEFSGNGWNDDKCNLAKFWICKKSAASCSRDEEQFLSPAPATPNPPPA

| Variant | effect of a mutation on the interaction |
| --- | --- |
| A127S | with no effect |

Variants of: B1
Settings: with myome_human PDE4DIP

| Variant | effect of a mutation on the interaction |
| --- | --- |
| A127S | with no effect |

Variants of: B1
Settings: with co8a1_human COL8A1, P27658
co8a1_human COL8A1, P27658, sequence (P27658 whole entry): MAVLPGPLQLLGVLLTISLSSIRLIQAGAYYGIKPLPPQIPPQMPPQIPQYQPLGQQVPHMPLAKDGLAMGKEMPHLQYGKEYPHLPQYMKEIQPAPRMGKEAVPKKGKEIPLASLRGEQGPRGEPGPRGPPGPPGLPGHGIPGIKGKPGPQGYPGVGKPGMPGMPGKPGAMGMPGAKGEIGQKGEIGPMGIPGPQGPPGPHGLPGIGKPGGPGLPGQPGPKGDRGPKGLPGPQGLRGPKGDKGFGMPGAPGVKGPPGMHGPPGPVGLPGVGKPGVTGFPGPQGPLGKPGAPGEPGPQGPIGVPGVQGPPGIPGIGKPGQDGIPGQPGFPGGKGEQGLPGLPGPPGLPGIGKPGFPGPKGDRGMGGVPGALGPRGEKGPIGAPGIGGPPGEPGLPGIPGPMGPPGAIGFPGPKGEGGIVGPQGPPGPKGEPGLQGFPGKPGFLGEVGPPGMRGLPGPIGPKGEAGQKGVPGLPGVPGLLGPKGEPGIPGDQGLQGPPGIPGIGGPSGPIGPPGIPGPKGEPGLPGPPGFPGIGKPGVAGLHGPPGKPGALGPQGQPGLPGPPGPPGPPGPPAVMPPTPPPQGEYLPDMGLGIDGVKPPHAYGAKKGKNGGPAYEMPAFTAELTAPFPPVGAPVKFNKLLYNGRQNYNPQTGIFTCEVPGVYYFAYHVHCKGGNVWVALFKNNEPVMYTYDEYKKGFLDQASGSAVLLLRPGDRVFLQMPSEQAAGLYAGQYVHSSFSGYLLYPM

| Variant | effect of a mutation on the interaction |
| --- | --- |
| A127S | with no effect |

Variants of: B1
Settings: with znf34_human ZNF34, Q8IZ26
znf34_human ZNF34, Q8IZ26, sequence (Q8IZ26 whole entry): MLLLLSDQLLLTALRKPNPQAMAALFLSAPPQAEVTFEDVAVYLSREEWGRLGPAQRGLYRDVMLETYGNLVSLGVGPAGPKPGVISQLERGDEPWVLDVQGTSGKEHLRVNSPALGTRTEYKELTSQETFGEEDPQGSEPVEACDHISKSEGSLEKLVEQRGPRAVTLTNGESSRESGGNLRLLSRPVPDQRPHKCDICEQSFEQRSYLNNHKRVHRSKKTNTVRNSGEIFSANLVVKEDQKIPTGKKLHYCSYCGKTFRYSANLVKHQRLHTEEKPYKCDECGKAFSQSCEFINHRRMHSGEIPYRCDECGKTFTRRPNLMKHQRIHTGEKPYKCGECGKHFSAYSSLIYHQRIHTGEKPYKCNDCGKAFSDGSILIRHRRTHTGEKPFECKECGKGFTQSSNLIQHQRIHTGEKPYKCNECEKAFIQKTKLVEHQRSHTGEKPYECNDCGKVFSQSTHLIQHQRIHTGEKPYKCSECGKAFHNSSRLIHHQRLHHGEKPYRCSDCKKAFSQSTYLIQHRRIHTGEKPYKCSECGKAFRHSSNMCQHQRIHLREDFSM

| Variant | effect of a mutation on the interaction |
| --- | --- |
| A127S | with no effect |

Variants of: B1
Settings: with ntaq1_human NTAQ1, Q96HA8
ntaq1_human NTAQ1, Q96HA8, sequence (Q96HA8 whole entry): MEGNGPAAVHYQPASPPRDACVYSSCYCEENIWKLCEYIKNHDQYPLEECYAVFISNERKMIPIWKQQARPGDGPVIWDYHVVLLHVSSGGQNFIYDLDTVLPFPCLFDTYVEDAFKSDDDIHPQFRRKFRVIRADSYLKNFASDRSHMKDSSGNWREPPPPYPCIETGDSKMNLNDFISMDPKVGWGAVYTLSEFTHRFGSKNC

| Variant | effect of a mutation on the interaction |
| --- | --- |
| A127S | with no effect |

Variants of: B1
Settings: with casp1_human CASP1, P29466
casp1_human CASP1, P29466, sequence (P29466 whole entry): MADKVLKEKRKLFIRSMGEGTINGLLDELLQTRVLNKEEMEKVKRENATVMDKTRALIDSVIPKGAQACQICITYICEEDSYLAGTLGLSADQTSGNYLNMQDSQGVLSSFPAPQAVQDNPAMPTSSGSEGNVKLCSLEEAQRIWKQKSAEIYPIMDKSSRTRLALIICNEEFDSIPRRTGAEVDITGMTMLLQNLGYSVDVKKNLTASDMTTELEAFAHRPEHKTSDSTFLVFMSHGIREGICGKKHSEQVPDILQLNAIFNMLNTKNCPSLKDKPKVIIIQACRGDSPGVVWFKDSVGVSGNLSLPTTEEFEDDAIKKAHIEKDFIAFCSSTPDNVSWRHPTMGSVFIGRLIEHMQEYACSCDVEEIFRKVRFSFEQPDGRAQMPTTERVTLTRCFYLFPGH

| Variant | effect of a mutation on the interaction |
| --- | --- |
| A127S | with no effect |

Variants of: B1
Settings: with fyv1_human PIKFYVE

| Variant | effect of a mutation on the interaction |
| --- | --- |
| A127S | with no effect |

Variants of: B2
Settings: with trip6_human TRIP6, Q15654

| Variant | effect of a mutation on the interaction |
| --- | --- |
| R212H | with no effect |

Variants of: B3
Settings: with cklf5_human CMTM5, Q96DZ9

| Variant | effect of a mutation on the interaction |
| --- | --- |
| V112M | disrupting interaction strength |

Variants of: B4
Settings: with KRT40, Q6A162

| Variant | effect of a mutation on the interaction |
| --- | --- |
| R212H | with no effect |
